This is an account of results in PMC3553985 (Nucleic Acids Research, 2012).

This experiment concerns the target T1, γ subunit of Sulfolobus solfataricus aIF2 (Ss-aIF2γ), native version (S. solfataricus, UniProt Q980A5 2-415).
T1 sequence: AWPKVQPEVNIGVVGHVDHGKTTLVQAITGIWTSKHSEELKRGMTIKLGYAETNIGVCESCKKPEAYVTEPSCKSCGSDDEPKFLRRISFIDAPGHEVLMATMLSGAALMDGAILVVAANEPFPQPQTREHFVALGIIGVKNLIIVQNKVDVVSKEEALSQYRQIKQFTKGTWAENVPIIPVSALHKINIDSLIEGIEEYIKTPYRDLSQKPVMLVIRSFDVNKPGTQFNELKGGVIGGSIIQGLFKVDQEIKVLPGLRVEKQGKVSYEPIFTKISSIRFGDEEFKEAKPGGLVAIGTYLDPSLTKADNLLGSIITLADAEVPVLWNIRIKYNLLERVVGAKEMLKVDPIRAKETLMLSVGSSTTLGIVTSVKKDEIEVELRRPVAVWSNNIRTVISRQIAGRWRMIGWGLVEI
Kind of experiment: SEC.

B1: yeast αD3ΔC274, His-tag removed (SAXS sample) (domain or fragment)
chain: TPQAVKIRADVEVSCFSYEGIDAIKDALKSAEDMSTEQMQVKVKLVAAPLYVLTTQALDKQKGIEQLESAIEKITEVITKYGGVCNITMPPKAVTAT
For the molecule B1, the binding result is reported as “binds”.

B2: yeast eIF2αΔC274, His-tag removed (SAXS sample) (domain or fragment)
chain: MSTSHCRFYENKYPEIDDIVMVNVQQIAEMGAYVKLLEYDNIEGMILLSELSRRRIRSIQKLIRVGKNDVAVVLRVDKEKGYIDLSKRRVSSEDIIKCEEKYQKSKTVHSILRYCAEKFQIPLEELYKTIAWPLSRKFGHAYEAFKLSIIDETVWEGIEPPSKDVLDELKNYISKRLTPQAVKIRADVEVSCFSYEGIDAIKDALKSAEDMSTEQMQVKVKLVAAPLYVLTTQALDKQKGIEQLESAIEKITEVITKYGGVCNITMPPKAVTAT
Regarding B2, the binding result is recorded as “binds”.
